The values below come from patent US20050142135A1, “Agents and methods for modulating interactions between gonadotropin hormones and receptors” (University of Kentucky Research Foundation, priority 2003, published 2005).

*1 amine or outer side, *2 acyl side, *3 side chain or, on linkers, in order; H or OH if unused. [ ]: non-standard residue; d: D form. The star is where a group is joined. ABG = 4-azidobenzoyl glycine, attached via its N-hydroxysuccinimide ester, [N-]=[N+]=Nc1ccc(C(=O)NCC(=O)*)cc1; Tyr(125I) = radioiodinated (125I) tyrosine, O=C([C@H](Cc1ccc(O[*:3])c([125I])c1)N[*:1])[*:2]

In experiment [1] the target is T1, FSH (Homo sapiens, UniProt P01215+P01225).
T1 construct: purchased National Hormone and Pituitary Program
Nature of the experiment: Photoaffinity labeling of FSH with exoloop 3 peptide (ABG-^125I-FSHR^exo3). In kind it is binding. The settings on record: increasing concentrations of unlabeled FSHR peptides. The procedure:
A peptide mimic corresponding to the exoloop 3 sequence of K^580 […]^590 (FSHR exo3) (SEQ ID NO: 3) was synthesized, to which a Tyr residue was attached to the C-terminus for radioiodination. The N-terminus of the peptide was acetylated and the C-terminus amidated. NHS-ABG was synthesized as previously described and freshly dissolved in dimethyl sulfoxide to a concentration of 50 mM and NHS-ABG in 0.1 M sodium phosphate (pH 7.5) to a concentration of 20 mM. These reagent solutions were immediately used to derivatize receptor peptides. In the dark, 10 μl of NHS-ABG was added to […] of receptor peptides in 40 μl of 0.1 M sodium phosphate (pH 7.5). The mixture was incubated with NHS-ABG for 30 minutes at 25° C. […] After 20 sec, 7 μl of sodium metabisulfite (2.5 mg/ml) in 10 mM Na2 HPO4, pH 7.4, was introduced to terminate radioiodination.
Competitive inhibition experiments were carried out for the photoaffinity labeling experiments. 10 μl of PBS was introduced to each tube and the mixture was incubated with 10 μl of increasing concentrations of nonradioactive receptor peptides. The mixtures were incubated at 37° C. for 90 minutes in the dark, irradiated with Mineralight R-52 UV lamp for 3 minutes as previously described, and solubilized in 2% SDS, 100 mM dithiothreitol and 8 M urea. The samples were electrophoresed on 8-12% polyacrylamide gradient gels. […]

For experiment [2], the target named is T1, FSH. Briefly: Photoaffinity labeling of FSH with ^125I-FSHR^9-40F13Bpa. In kind it is binding. The conditions noted are these: increasing concentrations of nonradioactive peptide. The procedure: In the dark, 30 μg of receptor peptides in 40 μl of 0.1 M sodium phosphate (pH 7.5). The mixture was incubated for 30 minutes at 25° C. […] After 20 seconds, 7 μl of sodium metabisulfite (2.5 mg/ml) in 10 mM Na2HPO4, pH 7.4, was introduced to terminate radioiodination.
The mixtures were incubated at 37° C. for 90 minutes in the dark, irradiated with a Mineralight R-52 UV lamp for 3 minutes, and solubilized in 2% SDS, 100 mM dithiothreitol and 8 M urea. The samples were electrophoresed on 8-12% polyacrylamide gradient gels. Gels were dried on filter paper and exposed to an imaging screen overnight, which was scanned on a phosphoimager (Molecular Dynamics).
The FSH α and β subunits co-migrate on SDS-PAGE. To separate them on the gel FSH was deglycosylated with PNGase F and after it was photoaffinity labeled. Enzymatic cleavage was done by incubation of the labeled FSH complex with 20 or 50 units of PNGase F (New England BioLabs, Inc., MA) in 40 μl for 18 hours at 37° C. The samples were solubilized in SDS under the reducing condition and electrophoresed on 15% gel containing 9 M urea.

The next experiment concerns the target T2, hCG (Homo sapiens, UniProt P01215+P0DN86).
T2 construct: purchased National Hormone and Pituitary Program
Briefly: Photoaffinity labeling of hCG with ABG-^125I-LHR^exo3. The experiment is classed as binding. The conditions noted are these: for inhibition of photoaffinity labeling of hCG by ABG-^125I-LHR^exo3: 4 mM of nonlabeled peptide. On the procedure: A peptide mimic corresponding to the LHR exoloop 3 sequence of K^573 […]^583 (LHR^exo3) was synthesized, to which a Tyr residue was attached to the C-terminus for radioiodination. The N-terminus of the peptide was acetylated and the C-terminus amidated. NHS-ABG was synthesized as previously described and freshly dissolved in dimethyl sulfoxide to a concentration of 50 mM. The reagent was diluted in 0.1 M sodium phosphate (pH 7.5) to a concentration of 20 mM. The reagent solution was immediately used to derivatize receptor peptides. In the dark, […] of NHS-ABG was added to […] of receptor peptides in […] of 0.1 M sodium phosphate (pH 7.5), and the mixture was incubated for 30 minutes at 25° C. […] After 20 seconds, 7 μl of sodium metabisulfite (2.5 mg/ml) in 10 mM Na2 HPO4, pH 7.4, was introduced to terminate radioiodination. Derivatized and radioiodinated ABG-^exo3 I-LHR^exo3 solution was mixed with 60 μl of 16% sucrose solution in PBS and fractionated on Sephadex Superfine G-10 column (0.6×15 cm) using PBS.
(§1) The mixtures were incubated at 37° C. for 90 minutes in the dark, irradiated with Mineralight R-52 UV lamp for 3 minutes as previously described, and solubilized in 2% SDS, 100 mM dithiothreitol and 8 M urea. The samples were electrophoresed on 8-12% polyacrylamide gradient gels. Gels were dried on filter paper and exposed to an imaging screen overnight, which was scanned on a phosphoimager. Exoloop 3 was modeled.

In a further experiment the target is T3, LHR (Homo sapiens, UniProt P22888).
T3 construct: expressed in transfected cells
Nature of the experiment: Inhibition of ^125I-hCG binding to cells stably expressing LHR. The conditions noted are these: increasing concentrations of nonradioactive competitor. On the procedure: The cells were washed and bound radioactivity was measured.
(§2) The Kd values were determined by Scatchard plots. For intracellular cAMP assay, cells were washed twice with Dulbecco's modified Eagle's media and incubated in the media containing isobutylmethylxanthine (0.1 mg/ml) for 15 minutes. Increasing concentrations of hormone were then added and the incubation was continued for 45 minutes at 37° C. After removing the media, the cells were rinsed once with fresh media without isobutylmethylxanthine, lysed in 70% ethanol, freeze-thawed in liquid nitrogen, and scraped.

The next experiment relates to FSHR. Nature of the experiment: Inhibition of ^125I-FSH binding to the receptor on intact cells by exoloop 3 peptide. Further details: species or system human. On the procedure:
The FSH a and b subunits separated in the lower band and upper band, respectively.
as §2, with “Human FSH (the National Hormone and Pituitary Program) was radioiodinated as previously described for radioiodination of hCG. […] The” for “The”, “plots. Truncated exodomain was solubilized in Nonidet P-40 and assayed for hormone binding as described previously.” for “plots.”, “FSH” for “hormone”, “scraped. […] Exoloop 3 of FSHR was modeled based on the crystal structure of rhodopsin as a template.” for “scraped.”

Experiment [3] deals with phospholipase A, phospholipase C, phospholipase D and urokinase. Briefly: Labeling specificity of ABG-^125I-LHR^exo3 on other proteins. The experiment is classed as binding. The procedure:
as §1

A further experiment has as its target T4, human LH (Homo sapiens, UniProt P01215+P01229).
T4 construct: purchased National Hormone and Pituitary Program
Briefly: Photoaffinity labeling of LH with ABG-^125I-LHR^exo3. The experiment is classed as binding. The conditions noted are these: increasing concentrations of LH. On the procedure:
The samples were processed.
as §1

A further experiment deals with human LHR. Nature of the experiment: Inositol phosphate assay, LHR exoloop 3 mutants in HEK 293 cells, hCG stimulated. In kind it is cell-based. The settings on record: NS = not significant. On the procedure: Stable cells were plated in 12 well plates and grown in inositol free DMEM (Atlanta Biologicals) supplemented with 8% heat-inactivated horse serum and […] [^3H]inositol (NEN) for 48 hours to 40-50% confluency. After removing the medium, the cells were incubated in 1 ml of fresh wash buffer consisting of DMEM w/o inositol and 15 mM HEPES (pH 7.3) for 1 hour at 37° C. This medium was removed and 0.3 ml wash buffer containing 20 mM LiCl was added and incubated for 15 minutes at 37° C. After the cells were stimulated with increasing concentrations of hormone for 30 minutes at 37° C., the incubation was terminated by the removal of medium and the addition of 0.25 ml of 0.6 N HCl to each well. The cells were scraped, transferred into microcentrifuge tubes and the wells were again washed with 0.25 ml of 0.6 N HCl. The combined washes were treated with 0.9 ml of a mixture of chloroform:methanol (2:1), vortexed and centrifuged at 1000×g for 5 minutes at room temperature. The top aqueous layer, which was free of phospholipids, was removed and the remaining chloroform layer treated with 0.2 ml of methanol:water (1:1), vortexed and centrifuged, as above. This aqueous layer was added to the previous aqueous layer and the samples dried in a vacuum concentrator. […] Aliquots of 200 μl were counted for radioactivity in 1.5 ml of Ultima AF scintillation fluid (Packard). […]
human LHR, sequence (P22888 27-363 limits assumed): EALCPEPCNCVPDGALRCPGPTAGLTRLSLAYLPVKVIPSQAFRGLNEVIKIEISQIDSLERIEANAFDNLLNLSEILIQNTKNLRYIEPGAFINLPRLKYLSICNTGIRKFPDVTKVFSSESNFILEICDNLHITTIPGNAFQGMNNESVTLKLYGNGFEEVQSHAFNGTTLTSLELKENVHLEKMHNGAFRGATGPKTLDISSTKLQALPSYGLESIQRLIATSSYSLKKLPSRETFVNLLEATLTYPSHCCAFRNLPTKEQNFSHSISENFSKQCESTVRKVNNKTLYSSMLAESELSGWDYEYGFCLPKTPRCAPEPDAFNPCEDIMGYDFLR

T2 sequence (P01215 25-116, other chains not shown): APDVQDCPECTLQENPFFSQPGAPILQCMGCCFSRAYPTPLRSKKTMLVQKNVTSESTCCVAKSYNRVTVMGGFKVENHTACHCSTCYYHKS
T1 sequence (P01215 25-116): as the sequence (P01215 25-116, other chains not shown) above
T1 sequence (P01225 19-129): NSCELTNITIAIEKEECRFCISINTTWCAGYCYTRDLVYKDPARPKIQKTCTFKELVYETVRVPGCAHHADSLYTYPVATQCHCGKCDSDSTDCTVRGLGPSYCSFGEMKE
FSHR, sequence (P23945 18-695): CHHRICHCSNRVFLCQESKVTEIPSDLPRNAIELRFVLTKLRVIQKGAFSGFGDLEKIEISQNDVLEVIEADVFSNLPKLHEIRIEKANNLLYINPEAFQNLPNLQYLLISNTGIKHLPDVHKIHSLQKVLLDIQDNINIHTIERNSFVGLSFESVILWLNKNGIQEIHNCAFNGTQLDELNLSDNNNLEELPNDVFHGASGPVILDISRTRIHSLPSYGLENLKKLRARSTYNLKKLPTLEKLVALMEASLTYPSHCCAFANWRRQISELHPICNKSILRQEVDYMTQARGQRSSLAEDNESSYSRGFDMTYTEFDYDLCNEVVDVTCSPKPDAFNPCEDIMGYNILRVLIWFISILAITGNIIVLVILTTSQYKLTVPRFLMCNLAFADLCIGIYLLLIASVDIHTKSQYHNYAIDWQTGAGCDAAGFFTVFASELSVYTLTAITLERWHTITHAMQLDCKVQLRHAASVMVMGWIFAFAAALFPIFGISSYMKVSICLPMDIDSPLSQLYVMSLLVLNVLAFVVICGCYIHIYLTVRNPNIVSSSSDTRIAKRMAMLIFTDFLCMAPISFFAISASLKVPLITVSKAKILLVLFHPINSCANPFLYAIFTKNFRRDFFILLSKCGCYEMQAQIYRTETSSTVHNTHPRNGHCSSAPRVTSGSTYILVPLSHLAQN
T4 sequence (P01215 25-116): as the sequence (P01215 25-116, other chains not shown) above
T4 sequence (P01229 21-141): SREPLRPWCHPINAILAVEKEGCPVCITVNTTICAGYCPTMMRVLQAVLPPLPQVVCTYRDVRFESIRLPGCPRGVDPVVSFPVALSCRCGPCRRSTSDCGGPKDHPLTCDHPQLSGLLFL
T3 sequence (P22888 27-699): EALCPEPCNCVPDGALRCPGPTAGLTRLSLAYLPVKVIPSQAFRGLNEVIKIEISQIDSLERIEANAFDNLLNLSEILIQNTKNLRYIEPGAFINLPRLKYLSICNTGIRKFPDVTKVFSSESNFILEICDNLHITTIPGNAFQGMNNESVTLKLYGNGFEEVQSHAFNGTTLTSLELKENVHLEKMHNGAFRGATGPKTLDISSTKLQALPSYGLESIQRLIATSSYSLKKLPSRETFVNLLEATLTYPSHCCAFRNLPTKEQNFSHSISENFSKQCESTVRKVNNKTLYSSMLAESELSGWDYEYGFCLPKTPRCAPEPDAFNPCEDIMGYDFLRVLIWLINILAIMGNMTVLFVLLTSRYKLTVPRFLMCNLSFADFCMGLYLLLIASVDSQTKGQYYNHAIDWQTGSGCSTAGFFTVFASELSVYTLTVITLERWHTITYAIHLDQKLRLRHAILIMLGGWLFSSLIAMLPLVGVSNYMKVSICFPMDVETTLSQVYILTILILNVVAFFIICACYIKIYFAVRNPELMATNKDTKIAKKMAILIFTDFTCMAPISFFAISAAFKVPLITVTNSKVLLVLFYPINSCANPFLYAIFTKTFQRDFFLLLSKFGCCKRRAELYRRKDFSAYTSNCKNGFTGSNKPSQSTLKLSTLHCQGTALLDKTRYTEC

Consider “FSHR^9-40: peptide mimic of FSH receptor sequence S9-K40, SNRVFLCQESKVTEIPSDLPRNAIELRFVLTK (SEQ ID NO: 2) (Ac-YSNRVFLCQESKVTEIPSDLPRNAIELRFVLTK-NH2; not fully specified (some residues); printed as S9NRVFLCQESKVTEIPSDLPRNAIELRFVLTK40)”, for which the “inhibition of photoaffinity labeling of FSH by ^125I-ABG-FSHR^exo3” value in the experiment with FSH [1] was “inhibited the photoaffinity labeling in a dose dependent manner”. For the same substance, the “inhibition of photoaffinity labeling of FSH by ^125I-FSHR^9-40F13Bpa” value in the experiment with FSH [2] is given as “inhibited the photoaffinity labeling in a dose dependent manner”.

On to “LHR^exo3: peptide mimic of LHR exoloop 3, KVPLITVTNSK, C-terminal Tyr, N-acetylated, C-amidated (Ac-KVPLITVTNSKY-NH2)”, for which the “inhibition of photoaffinity labeling of hCG by ABG-^125I-LHR^exo3” value with hCG was “blocked the labeling”. The “inhibition of ^125I-hCG binding to LHR” value with LHR is on record as “inhibited ^125I-hCG binding to LHR”.

With “FSHR^exo3: peptide mimic of FSHR exoloop 3, KVPLITVSKAK (SEQ ID NO: 3), C-terminal Tyr, N-acetylated, C-amidated (Ac-KVPLITVSKAKY-NH2)”, the “inhibition of photoaffinity labeling of FSH by ^125I-ABG-FSHR^exo3” value with FSH [1] is “inhibited the photoaffinity labeling in a dose dependent manner”. In addition, in the experiment on FSHR, the “inhibition of ^125I-FSH binding to the receptor on intact cells” value is reported as “inhibited ^125I-FSH binding to the receptor on intact cells in a dose dependent manner”.

On to “ABG-^125I-LHR^exo3: LHR exoloop 3 peptide derivatized with N-hydroxysuccinimide of 4-azidobenzoyl glycine and radio-iodinated (Ac-KVPLITVTNSK(ABG)[Tyr(125I)]-NH2; also: derivatized with N-hydroxysuccinimide ester of 4-azidobenzoyl glycine, radio-iodinated (125I))”, for which the “labeled hCG subunits” value with hCG is recorded as “the a band labeled slightly more than the β band”. Further, the “hCG concentration at which the maximum labeling was reached” value with hCG (both hormone subunits, constant amount of probe) was 50 nM. The “photoaffinity labeling of denatured hCG” value with hCG (hCG boiled in 8 M urea) is on record as “not labeled at all”. In experiment [3], the “photoaffinity labeling of phospholipase A, phospholipase C, phospholipase D and urokinase” value is listed as “not photoaffinity labeled”. Besides, the “photoaffinity labeling of LH subunits” value with human LH was “Both of the α and β subunits of LH were labeled”.

For the substance “Wildtype: wild type human LH receptor expressed in HEK 293 cells (Table II)”, the “IP1 (cpm)” value with human LHR is given as 13,780-w cpm.

In the case of “LHR^18-36: N-terminal peptide of the LHR exodomain (CPGPTAGLTRLSLAYLPVK)”, the “inhibition of photoaffinity labeling of hCG by ABG-^125I-LHR^exo3” value in the experiment with hCG is reported as “failed to inhibit the labeling”.
